The source of these data is patent publication US20250099635A1, “IIMMUNOCONJUGATES COMPRISING KALLIKREIN RELATED PEPTIDASE 2 ANTIGEN BINDING DOMAINS AND THEIR USES” (Janssen Biotech, Inc., priority 2022, published 2025).

The assay concerns the target soluble human kallikrein related peptidase 2 (hK2) protein (human) (UniProt P20151). In words: SPR; antibody captured by anti-Fc antibody, soluble hK2 injected; 1:1 Langmuir fit.

soluble human kallikrein related peptidase 2 (hK2) protein (human), sequence (P20151 19-261): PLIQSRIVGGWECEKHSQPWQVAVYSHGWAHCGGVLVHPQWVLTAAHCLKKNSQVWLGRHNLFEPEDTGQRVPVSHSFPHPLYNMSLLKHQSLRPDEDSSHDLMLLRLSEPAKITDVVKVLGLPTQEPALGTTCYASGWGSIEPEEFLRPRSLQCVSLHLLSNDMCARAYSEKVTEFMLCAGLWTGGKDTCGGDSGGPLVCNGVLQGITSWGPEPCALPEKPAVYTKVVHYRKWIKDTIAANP

B1: KL2B359 (scFv-LH-Fc) (Fc fusion, part only; not given: Fc part, part only)
scFv, part: EIVLTQSPATLSLSPGERATLSCRASESVEYFGTSLMHWYQQKPGQPPRLLIYAASNVESGIPARFSGSGSGTDFTLTISSVEPEDFAVYFCQQTRKVPYTFGGGTKVEIKGGSEGKSSGSGSESKSTGGSQVQLQESGPGLVKPSQTLSLTCTVSGNSITSDYAWNWIRQFPGKRLEWIGYISYSGSTTYNPSLKSRVTISRDTSKNQFSLKLSSVTAADTAVYYCATGYYYGSGFWGQGTLVTVSS
B1 returned a Kd of 0.7 to 1 nM.

B2: KL2B413 (scFv-LH-Fc) (Fc fusion, part only; not given: Fc part, part only)
scFv, part: EIVLTQSPSFLSASVGDRVTITCRASQGISSYLSWYQQKPGKAPKLLIYATSTLQSGVPSRFSGSGSGTEFTLTISSLQPEDFATYYCQQLNSYPRTFGQGTKVEIKGGSEGKSSGSGSESKSTGGSEVQLVESGGGLVQPGGSLRLSCAASGFTFSSYWMTWVRQAPGKGLEWVANIKQDGSERYYVDSVKGRFTISRDNAKNSLYLQMNSLRAEDTAVYYCARDQNYDILTGHYGMDVWGQGTTVTVSS
With B2, the Kd is 34.3 nM. This counts as double-digit nanomolar.
